What was measured:
[1] = target: T1, recombinant human respiratory syncytial virus envelope protein F fused to the Fc fragment of antibody IgG1 … (human respiratory syncytial virus, UniProt P03420 26-524; P01857 99-330 = IgG part); experiment: ELISA, recF (4 ug/mL) coated, detection with HRP-Anti-FLAG
T1 construct: also called recombinant F protein; RSV F protein

[2] = target: F protein of respiratory syncytial virus type B (RSV B) (human respiratory syncytial virus type B); experiment: cell-based or functional assay
[3] = target: F protein of respiratory syncytial virus type A (RSV A) (human respiratory syncytial virus type A); experiment: cell-based or functional assay
[4] = target: T2, bovine serum albumin (bovine, UniProt P02769 25-607); experiment: ELISA, BSA as negative control, detection with HRP-Anti-FLAG
T2 construct: Negative control; also called BSA
T2 sequence (P02769 25-607 limits assumed): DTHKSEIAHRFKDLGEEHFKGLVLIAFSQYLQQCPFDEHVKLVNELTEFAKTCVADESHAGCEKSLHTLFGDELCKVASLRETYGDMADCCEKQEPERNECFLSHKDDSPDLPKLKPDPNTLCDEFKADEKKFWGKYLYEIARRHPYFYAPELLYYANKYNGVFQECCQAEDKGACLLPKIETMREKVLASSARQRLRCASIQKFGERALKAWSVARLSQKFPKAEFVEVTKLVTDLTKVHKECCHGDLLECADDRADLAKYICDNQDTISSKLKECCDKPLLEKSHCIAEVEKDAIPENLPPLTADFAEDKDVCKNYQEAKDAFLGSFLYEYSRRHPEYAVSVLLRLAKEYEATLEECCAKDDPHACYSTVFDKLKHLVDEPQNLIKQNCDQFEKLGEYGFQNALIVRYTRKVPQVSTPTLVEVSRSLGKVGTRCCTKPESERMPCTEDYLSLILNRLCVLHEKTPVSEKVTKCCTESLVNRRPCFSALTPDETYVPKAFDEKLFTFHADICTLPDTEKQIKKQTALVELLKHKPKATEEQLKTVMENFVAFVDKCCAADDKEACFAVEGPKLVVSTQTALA
Protocol: recF (4 μg/mL) was coated on an ELISA plate and incubated overnight at 4° C. and then blocked with PBS+3% milk at 37° C. for 1 h. […] The plate was then washed four times with PBST (PBS+0.05% Tween 20) and then incubated with HRP-Anti-FLAG monoclonal antibody at 37° C. for 1 h. The ABTS was added for color development. Bovine serum albumin (BSA) was used as a negative control.

T1 sequence (P03420 26-524, tags or fused parts left off): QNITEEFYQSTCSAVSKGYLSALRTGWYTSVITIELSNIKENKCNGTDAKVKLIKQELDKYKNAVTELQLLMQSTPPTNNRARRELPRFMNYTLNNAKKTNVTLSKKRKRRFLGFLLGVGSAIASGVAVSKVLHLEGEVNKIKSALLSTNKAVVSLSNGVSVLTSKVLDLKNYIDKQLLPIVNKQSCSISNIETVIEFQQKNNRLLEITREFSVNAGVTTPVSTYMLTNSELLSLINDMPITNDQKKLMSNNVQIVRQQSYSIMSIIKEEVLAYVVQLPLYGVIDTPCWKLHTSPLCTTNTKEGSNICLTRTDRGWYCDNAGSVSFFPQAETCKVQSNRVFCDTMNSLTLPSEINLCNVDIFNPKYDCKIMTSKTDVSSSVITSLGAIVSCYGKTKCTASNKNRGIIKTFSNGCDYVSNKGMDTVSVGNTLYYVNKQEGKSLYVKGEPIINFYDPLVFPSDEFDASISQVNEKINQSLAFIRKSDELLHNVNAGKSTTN

B1: C-based single domain antibody BBT-VC001-1 (designed binder)
chain: PSVLCLPPKPKDTLVISRTPEVTCVVSGYNPYDFPIIKFKWYVDGVEVDNAKVKPRDENSYNTDSVVSKLTVLHQDWLNGKEYKCKVSAREGGSSGEWYYDLWGPIECTISKAK
notes: expressed in E. coli HB2151; also called C-type nanobody BBT-VC001-1; BBC-VC001-1; not shown: C-terminal 6x His tag and FLAG tag
With B1 the EC50 [1] was 28 nM, the “IC50 for inhibition of respiratory syncytial virus type B (infection of Hep-2 cells)” value [2] was 8.42 ng/mL and the “IC50 for inhibition of respiratory syncytial virus type A (infection of Hep-2 cells)” value [3] was 8.33 ng/mL. B1: no binding [4].

Source: patent publication US20250042977A1 (WUHAN BANKE BIOTECHNOLOGY, published 2025)
